According to ChEMBL document CHEMBL1150442, “Synthesis and creatine kinase inhibitory activity of non-hydrolyzable analogs of phosphocreatine” (Bioorg Med Chem Lett, 1997):

Tested on: CN(CC(=O)O)C(=N)NP(=O)(O)O
Assay: Compound was tested for inhibition against Creatine kinase(CK)
Conditions: Oryctolagus cuniculus

Chain of Creatine kinase M-type (Homo sapiens), P06732 (P06732 whole entry): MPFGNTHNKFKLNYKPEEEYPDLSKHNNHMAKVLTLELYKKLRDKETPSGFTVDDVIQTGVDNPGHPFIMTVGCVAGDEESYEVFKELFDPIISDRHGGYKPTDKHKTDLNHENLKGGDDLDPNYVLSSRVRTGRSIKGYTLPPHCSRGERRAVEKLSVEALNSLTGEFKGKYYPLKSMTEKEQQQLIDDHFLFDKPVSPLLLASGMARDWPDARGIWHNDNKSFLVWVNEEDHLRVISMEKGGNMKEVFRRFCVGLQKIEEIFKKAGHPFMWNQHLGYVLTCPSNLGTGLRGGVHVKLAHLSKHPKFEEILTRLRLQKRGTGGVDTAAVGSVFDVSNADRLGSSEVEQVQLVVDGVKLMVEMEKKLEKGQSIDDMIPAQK

Creatine kinase M-type (Homo sapiens), P06732
Km: 2500 µM
